Test results from US20230227520A1 (MAX PLANCK GESELLSCHAFT ZUR F RDERUNG DER WISSENSCHAFTEN E V, published 2023).
Changes are numbered by the printed parent chain.

T1: G-CSFR on NFS-60 cells (murine myeloblastic cell line) (mouse, UniProt P40223 26-837)
T1 sequence (looked up): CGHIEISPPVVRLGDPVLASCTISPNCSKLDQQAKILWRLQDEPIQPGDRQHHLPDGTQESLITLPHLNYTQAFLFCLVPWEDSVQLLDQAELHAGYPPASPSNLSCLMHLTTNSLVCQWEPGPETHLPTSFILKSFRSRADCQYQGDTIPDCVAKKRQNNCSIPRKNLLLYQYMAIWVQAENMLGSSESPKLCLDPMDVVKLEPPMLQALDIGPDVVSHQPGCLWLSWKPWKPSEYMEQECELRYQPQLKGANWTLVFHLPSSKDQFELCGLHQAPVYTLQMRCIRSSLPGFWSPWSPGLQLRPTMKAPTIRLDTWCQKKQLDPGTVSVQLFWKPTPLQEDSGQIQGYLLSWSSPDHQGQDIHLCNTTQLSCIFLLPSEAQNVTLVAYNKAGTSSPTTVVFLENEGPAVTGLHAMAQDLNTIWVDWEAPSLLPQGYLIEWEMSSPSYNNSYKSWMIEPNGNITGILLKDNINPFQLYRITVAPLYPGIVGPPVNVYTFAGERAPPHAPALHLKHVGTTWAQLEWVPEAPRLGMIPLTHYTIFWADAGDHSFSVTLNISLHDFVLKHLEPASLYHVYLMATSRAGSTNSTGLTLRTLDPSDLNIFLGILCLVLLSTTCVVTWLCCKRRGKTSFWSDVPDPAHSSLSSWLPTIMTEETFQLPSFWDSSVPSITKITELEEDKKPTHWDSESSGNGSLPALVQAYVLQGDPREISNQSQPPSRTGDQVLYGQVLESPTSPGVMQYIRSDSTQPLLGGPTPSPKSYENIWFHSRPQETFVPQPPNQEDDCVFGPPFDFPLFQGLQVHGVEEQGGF

B1: moevan_st2 (designed binder)
chain: EAAAAARDESAYLKLQEQMRKIDADAAALSETRTIEELDTFKLDVADFVTTVVQLAEELEHRFGRNRRGRTEIYKIVKEVDRKLLDLTDAVLAKEKKGEDILNMVAEIKALLINIYKGGGGSSEAAAAARDESAYLKLQEQMRKIDADAAALSETRTIEELDTFKLDVADFVTTVVQLAEELEHRFGRNRRGRTEIYKIVKEVDRKLLDLTDAVLAKEKKGEDILNMVAEIKALLINIYK
B2: sohair2_15r (designed binder)
chain: MTSDYIIEQIQRKQEEARLKVEEQERKLEAVKEASKRGVSSDQLLNLILDLADIITTLIQIIEESNEAIKELIKNQGGGGSGGGGSGGGGSDYIIEQIQRKQEEARLKVEEQERKLEAVKEASKRGVSSDQLLNLILDLADIITTLIQIIEESNEAIKELIKNQ
B3: boskar4_t2 (designed binder)
chain: AALAAALAEIYKGLAEYQARLKSLEGISPELGPALDALRLDMADFATTMAQAMEEGLDSLPQSFLLKALEQIRKIQADAAALREKLAATYKGNDRAAAAVEIAAQLEAFLEKAYQILRHLAAAGGGGSSGGGGSSGGGGSSGGGGSSAALAAALAEIYKGLAEYQARLKSLEGISPELGPALDALRLDMADFATTMAQAMEEGLDSLPQSFLLKALEQIRKIQADAAALREKLAATYKGNDRAAAAVEIAAQLEAFLEKAYQILRHLAAA
B4: bika1 (designed binder)
chain: SKEVLEQSLFLKLDEQVRKLLADIHAIKIDRITGNMDKQKLDTAYLDVADIETTLYQLIEVSH
B5: bika2 (designed binder)
chain: B4 chain with A44L
B6: boskar4_15rl (designed binder)
chain: AALAAALAEIYKGLAEYQARLKSLEGISPELGPALDALRLDMADFATTMAQAMEGGGGSGGGGSGGGGSQSFLLKALEQIRKIQADAAALREKLAATYKGNDRAAAAVEIAAQLEAFLEKAYQILRHLAAA
B7: boskar4_st2 (designed binder)
chain: AALAAALAEIYKGLAEYQARLKSLEGISPELGPALDALRLDMADFATTMAQAMEEGLDSLPQSFLLKALEQIRKIQADAAALREKLAATYKGNDRAAAAVEIAAQLEAFLEKAYQILRHLAAAGGGGSSAALAAALAEIYKGLAEYQARLKSLEGISPELGPALDALRLDMADFATTMAQAMEEGLDSLPQSFLLKALEQIRKIQADAAALREKLAATYKGNDRAAAAVEIAAQLEAFLEKAYQILRHLAAA
B8: Disohair_1 (designed binder)
chain: MTSDYIIEQIQRKQEEARLKVEEMERKLEEVKEASKRGVSSDQLLNLILDLADIITTLIQIIEESNEAIKELIKNQ
B9: Boskar_2 (designed binder)
chain: AALAAELAEIMKGLQEYQARLKSLEGISPELGPALDALRLDMADFATTMAQMMEENPSDLPQSFLLKALEQIRKIQADAAALREKLAATYPNSQRAAAAVEIAAQLEAFLEKAYQILRHLAAA
B10: Boskar_1 (designed binder)
chain: AALAAELAEIYKGLAEYQARLQSLEGISPELGPALDALRLDVADFATTLAQAMEEKKTNLPQSFLLKALEQIRKIQADAAALREKLAATYTGTDRAAAAVEIAAQLEAFLEKAYEILRHLAAA
B11: Sohair (designed binder)
chain: MTSDYIIEQIQRKQEEARLKVEEMERKLEAVKEASKRGVSSDQLLNLILDLADIITTLIQIIEESNEAIKELIKNQKGPTSDYIIEQIQRDQEEARKKVEEAEERLERVKEASKRGVSSDQLLDLIRELAEIIEELIRIIRRSNEAIKELIKNQ

The binders below were run against T1, G-CSFR on NFS-60 cells (murine …) (assay: cell-based or functional assay).
For B1, the “NFS-60 EC50 (ng/mL), proliferation of NFS-60 cells” value (shortened to “NFS-60 EC50 (ng/mL), proliferation”) was 8.89 ng/mL.
For B2, the “NFS-60 EC50 (ng/mL), proliferation” value was 228 ng/mL.
In the case of B3, the “NFS-60 EC50 (ng/mL), proliferation” value is reported as 4.2 ng/mL.
B4 was tested, and the “NFS-60 EC50 (ng/mL), proliferation” value was 63 ng/mL.
B5 was tested, and the “NFS-60 EC50 (ng/mL), proliferation” value was 98 ng/mL.
With B6 the “NFS-60 EC50 (ng/mL), proliferation” value was 48.5 ng/mL.
In the case of B7, the “NFS-60 EC50 (ng/mL), proliferation” value is reported as 0.202 ng/mL.

Target: T1, G-CSFR on NFS-60 cells (murine …)
Test: cell-based or functional assay
Remark: another data set of the same source
For B8, the “NFS-60 EC50 (ng/mL), proliferation” value was 2380 ng/mL.
B9 was tested, and the “NFS-60 EC50 (ng/mL), proliferation” value was 3220 ng/mL.
With B10 the “NFS-60 EC50 (ng/mL), proliferation” value was 2170 ng/mL.
B11 was tested, and the “NFS-60 EC50 (ng/mL), proliferation” value was 5050 ng/mL.
